{
  "source": "paper PMC5467210",
  "about": "(2017)",
  "molecules": {"B1": {"name": "HypK-THB-StrepII (domain or fragment)", "chain": "GAMGKVDPADVNLLVEELELSKAKATELLKAHDGDAIKAMKAYIQPAFGSGSGSWSHPQFEK"}, "B2": {"name": "HypKΔN50-StrepII (domain or fragment)", "chain": "MAPAREVDQEAVKNAMSALSGASTEKKEVKKVKVDPADVNLLVEELELSKAKATELLKAHDGDAIKAMKAYIQPAF"}},
  "key": {"[1]": {"target": "NatA complex (His6-Naa15-Naa10ΔC-His6) (Chaetomium thermophilum)", "experiment": "SEC-MALS; NatA-HypK complex (0.2 mg) on Superdex 200 10/300 in SEC buffer coupled to MALS"}, "[2]": {"target": "T1, NatA complex (Naa15-Naa10ΔC-His6) (Chaetomium thermophilum)", "T1 chain 1": "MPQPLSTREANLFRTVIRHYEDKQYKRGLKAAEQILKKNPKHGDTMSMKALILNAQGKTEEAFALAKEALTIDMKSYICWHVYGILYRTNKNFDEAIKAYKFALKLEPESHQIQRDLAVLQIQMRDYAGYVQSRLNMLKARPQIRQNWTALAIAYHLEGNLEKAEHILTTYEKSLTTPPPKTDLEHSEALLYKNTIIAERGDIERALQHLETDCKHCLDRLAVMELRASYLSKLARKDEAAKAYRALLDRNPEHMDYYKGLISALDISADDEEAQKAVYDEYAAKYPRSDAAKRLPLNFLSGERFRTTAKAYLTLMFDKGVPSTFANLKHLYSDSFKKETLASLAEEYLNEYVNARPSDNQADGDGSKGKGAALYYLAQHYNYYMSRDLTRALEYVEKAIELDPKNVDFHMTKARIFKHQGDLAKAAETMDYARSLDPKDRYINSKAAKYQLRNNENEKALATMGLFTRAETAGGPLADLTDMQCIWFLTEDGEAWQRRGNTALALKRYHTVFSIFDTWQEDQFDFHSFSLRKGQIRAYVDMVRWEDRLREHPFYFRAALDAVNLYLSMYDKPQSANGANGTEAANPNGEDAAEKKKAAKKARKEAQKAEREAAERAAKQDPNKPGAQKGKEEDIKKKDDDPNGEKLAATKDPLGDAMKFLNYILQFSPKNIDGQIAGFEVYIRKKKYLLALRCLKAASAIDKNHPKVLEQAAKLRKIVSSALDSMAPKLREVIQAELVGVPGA", "T1 chain 2": "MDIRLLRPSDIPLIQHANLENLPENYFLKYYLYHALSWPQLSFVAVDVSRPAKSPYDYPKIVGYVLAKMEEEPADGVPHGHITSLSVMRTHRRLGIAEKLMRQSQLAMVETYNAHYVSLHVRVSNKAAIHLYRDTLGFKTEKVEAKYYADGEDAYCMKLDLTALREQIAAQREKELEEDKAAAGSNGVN", "experiment": "ITC; HypK-StrepII variants (100-400 μM) in the syringe, preformed NatA (Naa15-Naa10ΔC-His6, 10-40 μM) in the cell; 25 °C; 20 mM HEPES pH 7.5, 150 mM NaCl, 10 mM MgCl2, 10 mM KCl; single-site model; triplicates"}, "[3]": {"target": "T1, NatA complex (Naa15-Naa10ΔC-His6)", "experiment": "ITC"}},
  "data": [
    {"molecule": "His6-HypK (full length) (natural protein)", "values": [
      {"measurement": "stoichiometry N", "setting": "[1]", "result": 1}
    ]},
    {"molecule": "HypK-StrepII (full length) (natural protein)", "values": [
      {"measurement": "Kd", "setting": "[2]", "result": 38.3, "unit": "nM"}
    ]},
    {"molecule": "B1", "values": [
      {"measurement": "Kd", "setting": "[3]", "result": 46.9, "unit": "nM"}
    ]},
    {"molecule": "B2", "values": [
      {"measurement": "Kd", "setting": "[3]", "result": 28.6, "unit": "nM"}
    ]}
  ]
}
